# Experimental data as given in patent publication US20190030180A1.
# B1: IgG1-YW327.6S2 (antibody, from another filing, V domains shown)
# VH: EVQLVESGGGLVQPGGSLRLSCAASGFSLSGSWIHWVRQAPGKGLEWVGWINPYRGYAYYADSVKGRFTISADTSKNTAYLQMNSLRAEDTAVYYCAREYSGWGGSSVGYAMDYWGQGTLVTVSS
# VL: DIQMTQSPSSLSASVGDRVTITCRASQDVSTAVAWYQQKPGKAPKLLIYSASFLYSGVPSRFSGSGSGTDFTLTISSLQPEDFATYYCQQSYTTPPTFGQGTKVEIK
# Target: human AXL (full length) (human) (UniProt P30530)
# Assay: flow cytometry; A431 cells pre-incubated with 10 µg/mL Gas6
# UniProt P30530, sequence (P30530 26-894 limits assumed): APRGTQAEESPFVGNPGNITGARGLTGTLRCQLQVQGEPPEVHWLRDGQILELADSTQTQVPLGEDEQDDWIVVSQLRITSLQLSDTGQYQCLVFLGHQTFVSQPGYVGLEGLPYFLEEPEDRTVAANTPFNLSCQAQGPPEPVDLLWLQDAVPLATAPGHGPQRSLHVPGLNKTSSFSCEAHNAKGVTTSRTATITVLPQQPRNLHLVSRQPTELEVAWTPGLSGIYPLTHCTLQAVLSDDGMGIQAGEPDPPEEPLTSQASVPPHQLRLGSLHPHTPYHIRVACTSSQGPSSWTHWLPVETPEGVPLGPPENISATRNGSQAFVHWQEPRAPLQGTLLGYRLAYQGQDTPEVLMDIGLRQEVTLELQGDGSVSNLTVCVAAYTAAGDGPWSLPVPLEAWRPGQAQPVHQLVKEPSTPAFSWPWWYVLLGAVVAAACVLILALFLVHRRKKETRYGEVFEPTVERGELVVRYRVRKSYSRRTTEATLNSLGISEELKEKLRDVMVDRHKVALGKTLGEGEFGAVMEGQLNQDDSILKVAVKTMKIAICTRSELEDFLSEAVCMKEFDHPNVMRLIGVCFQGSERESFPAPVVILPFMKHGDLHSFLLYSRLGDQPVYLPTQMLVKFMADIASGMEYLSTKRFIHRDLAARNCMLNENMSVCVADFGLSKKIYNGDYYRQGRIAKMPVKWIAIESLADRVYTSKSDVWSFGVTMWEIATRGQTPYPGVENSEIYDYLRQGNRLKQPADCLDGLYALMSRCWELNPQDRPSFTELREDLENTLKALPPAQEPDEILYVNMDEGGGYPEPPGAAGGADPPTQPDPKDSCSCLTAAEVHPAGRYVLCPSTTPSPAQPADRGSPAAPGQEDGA
binder,measurement,value
B1,fold change of EC50 with Gas6 pre-incubation against without Gas6,21 fold
same,maximal binding in presence of Gas6 (% of binding in absence of Gas6),19%
